{"source": "paper PMC3367187", "assay_in_all_cases": "EMSA", "key": {"[1]": {"target": "T1, HuR (wild type) (UniProt Q15717 1-326)"}, "[2]": {"target": "HuRΔ3 (UniProt Q15717 1-242, del243-326)"}, "[3]": {"target": "HuRΔH (UniProt Q15717 1-326, del186-242)"}, "[4]": {"target": "T1, HuR (wild type)", "remark": "listed apart in the source"}}, "note": "Read-outs that look alike come from different tables or passages of the source."}
{"binder": "ΔHBS_20_MBSp (ssRNA) RNA: GGAGGUCCAAAGAGUGAGACUGACUAUACAACCUACUACCUCAACGUUACACU", "values": [{"measurement": "binding result", "setting": "[1]", "result": "no binding"}]}
{"binder": "HBS_50_MBSp (ssRNA) RNA: GGUAUUUAUUUAUUUAUUUGUUUGUUUGUUUUAUUGCUGUACGAGAGAGUCACUGUGCUGAUGUGGACUCAACAUCUGAUGAGCAACUAUACAACCUACUACCUCAACGUUACACU", "values": [{"measurement": "binding result", "setting": "[2]", "result": "binds"}, {"measurement": "binding result", "setting": "[3]", "result": "binds"}, {"measurement": "binding result", "setting": "[4]", "result": "binds"}]}
{"binder": "HBSMut_20_MBSp (ssRNA) RNA: GGUAUAUAUGUCAUGCAUACGUAUGUGCGUAUCUACUAGGUCCAAAGAGUGAGACUGACUAUACAACCUACUACCUCAACGUUACACU", "values": [{"measurement": "binding result", "setting": "[1]", "result": "no binding"}]}
